Results as given in patent US6833248B2, “Human caspase-12 materials and methods” (Pharmacia & Upjohn Company, priority 2000, dated 2004).
Blank lines part the entries; values can stand above or below the molecule they belong to.

Columns and labels:
[1] = system: endogenous human caspase-12; assay: Induction of endogenous caspase-12 protein by ER stress-inducing agents in SH-EP cells (Western blot); assay type: cell-based; conditions: SH-EP cells, 1 μg/ml tunicamycin, harvested over time
Procedure: Reports in the literature indicated a strong activation of murine caspase-12 in response to agents which induce an endoplasmic reticulum (ER) stress response, such as tunicamycin or the Ca^2+ ionophore A23187. The activation of endogenous human caspase-12 by these ER stress-inducing agents in SH-EP and HEK293 cells was evaluated by Western blot analysis of cell lysates. SH-EP is a neuroblastoma cell line that endogenously expresses human caspase-12 at detectable levels. HEK293 is a transformed kidney cell line that lacks detectable caspase-12.
(§1) Cell cultures were treated with 1 μg/ml tunicamycin or 2 μM A23187 (Calbiochem) and harvested over time. Cells were lysed in detergent buffer, cellular proteins resolved on NuPAGE gels and subjected to Western blot analysis using the same antibody as in Example 8A above. […] (BACHEM) for 40 hours.
The biological significance of caspase-12 up-regulation by the ER stress-inducing agent A23187 in apoptosis was further investigated. SH-EP cells were treated with 2 μM A23187 for 40 hours to induce expression of endogenous caspase-12. One control culture was left untreated. Of the four cultures treated with A23187, one culture received 10 μg/ml cycloheximide (CHX) to block new protein synthesis and two cultures were subjected to an apoptotic stimulus, either 250 ng/ml α-Fas antibody for 24 hours or 1200 microjoules UV irradiation. The cultures were harvested after 6.5 hours. Western blot analysis of caspase-12 expression and activation was done as described above in Example 8A, using similar protein loads for each condition tested.

GRP 78 = assay: Induction of GRP 78 in cell cultures (control Western blot); assay type: cell-based; conditions: tunicamycin treatment
Procedure: as §1

DEVD-R110 = assay: Homogeneous Caspase Assay, fluorimetric, release of rhodamine-110 from DEVD-R110; assay type: biochemical; conditions: partially purified protein preparation; two-hour incubation of DEVD-R110 substrate
Text: The enzymatic activity of the partially purified hCaspase-12 and ΔCARD proteins was further evaluated in a fluorimetric assay allowing quantitation. The caspase activity of partially purified hCaspase-12 and ΔCARD protein preparations was compared to a control (non-caspase protein) preparation, using the Homogeneous Caspase Assay (Roche Biochemicals) according to the manufacturer's protocol. The assay measures the amount of free rhodamine-110, following its release from the substrate DEVD-R110, a caspase recognition sequence. Following a two-hour incubation of DEVD-R110 substrate with dilutions of the various protein preparations, free rhodamine-110 was quantitated fluorimetrically. Measured fluorescence intensity (RFU) for each preparation was 807 for hCaspase-12, 445 for ΔCARD, and 31 for the control.

procaspase-3 = assay: Proteolytic activity using procaspase-3 substrate (Western blot); assay type: biochemical; conditions: partially purified preparation, 2 hours at 37° C.; antibody to full-length caspase-3
Procedure: Lysates which contain recombinant caspases produced by expression in E. coli often contain fragments indicative of autoprocessing. Because the autolysis in caspase-12 lysates observed in Example 3B above is indicative of enzymatic activity, the enzymatic activity of partially purified human caspase-12 lysates was evaluated using procaspase-3 as a potential substrate. Caspase-3 is an effector caspase, which is cleaved at Asp175 by initiator caspases-8 and -9 to give the mature 19 kDa and 11 kDa subunits of the active enzyme. Processing of procaspase-3 was evaluated by Western blot analysis using an antibody that binds to full-length caspase-3 and another antibody that binds to the larger B subunit and that is specific for activated enzyme.
For use as a substrate for caspase-12, procaspase-3 was immunoprecipitated from SH-EP cell lysates using an antibody to full-length caspase-3 (Upstate Biotechnology, Inc.) and isolated on Protein G-Plus/Protein A agarose (Oncogene Science). […] Caspase-3 processing/activation by caspase-12 was detected by incubating with an anti-caspase-3 antibody (Upstate Biotechnology) which recognizes all subunits of caspase-3. Following incubation with an anti-rabbit HRP-conjugated antibody (Santa Cruz Biotechnology), immunoreactivity was detected by chemiluminescence using SuperSignal West PICO reagent (Pierce). […]

calpain II = molecular target: T1, calpain II (Homo sapiens, UniProt P17655); assay: Calpain II cleavage of human caspase-12 in vitro (Western blot); assay type: biochemical; conditions: affinity-purified protein, 0.012 U/μl calpain II activated by 5 mM CaCl2
T1 construct: purchased Calbiochem
T1 sequence (P17655 1-700): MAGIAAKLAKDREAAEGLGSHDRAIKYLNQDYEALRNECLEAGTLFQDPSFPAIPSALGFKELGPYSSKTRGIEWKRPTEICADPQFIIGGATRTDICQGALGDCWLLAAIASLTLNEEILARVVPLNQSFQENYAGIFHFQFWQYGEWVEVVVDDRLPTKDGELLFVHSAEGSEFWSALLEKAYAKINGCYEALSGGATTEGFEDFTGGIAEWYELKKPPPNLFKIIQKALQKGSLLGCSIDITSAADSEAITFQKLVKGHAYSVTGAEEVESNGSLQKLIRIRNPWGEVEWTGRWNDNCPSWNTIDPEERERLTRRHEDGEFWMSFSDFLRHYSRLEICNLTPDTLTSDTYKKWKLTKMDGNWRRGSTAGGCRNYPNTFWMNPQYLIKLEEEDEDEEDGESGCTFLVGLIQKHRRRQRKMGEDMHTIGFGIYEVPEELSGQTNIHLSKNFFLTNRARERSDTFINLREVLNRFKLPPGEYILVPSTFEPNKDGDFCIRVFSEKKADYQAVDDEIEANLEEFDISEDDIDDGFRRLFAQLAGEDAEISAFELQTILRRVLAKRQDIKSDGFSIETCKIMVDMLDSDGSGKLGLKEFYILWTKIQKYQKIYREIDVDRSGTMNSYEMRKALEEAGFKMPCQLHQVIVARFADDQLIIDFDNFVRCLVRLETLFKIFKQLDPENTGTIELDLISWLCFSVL
T1 sequence (P04632 1-268 partner): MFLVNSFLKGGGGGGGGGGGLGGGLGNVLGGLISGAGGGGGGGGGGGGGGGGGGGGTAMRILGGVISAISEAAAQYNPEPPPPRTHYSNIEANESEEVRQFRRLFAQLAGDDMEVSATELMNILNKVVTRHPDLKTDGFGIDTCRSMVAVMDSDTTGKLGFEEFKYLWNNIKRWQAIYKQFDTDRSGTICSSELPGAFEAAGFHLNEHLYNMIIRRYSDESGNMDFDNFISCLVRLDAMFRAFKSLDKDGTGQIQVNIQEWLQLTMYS
Procedure: The relationship between calpain and caspase-12 was explored in vitro as follows. Affinity-purified hCaspase-12 and ΔCARD caspase-12 prepared as described in Example 3B above, were incubated with 0.012 U/μl calpain II (Calbiochem) in solutions containing 150 mM NaCl, 20 mM Tris-HCl, pH 7.5, and 1 mM DTT. Calpain II was activated by the addition of 5 mM CaCl2, while corresponding control cultures were not activated by addition of calcium. Cleavage of human caspase-12 was evaluated by Western blot analysis as described in Example 8A above. […] Thus, the activation and processing of caspase-12 is closely tied to cellular calcium levels. It is anticipated that calpain will process caspase-12 by recognizing the cleavage site “ASADT” at positions 269-272 of hCaspase-12 (SEQ ID NO: 77), with cleavage occurring between residues 271 and 272. Because cellular calcium is an important regulatory feature in health and disease, the signaling pathway to caspase-12 may have multiple branches that can result in activation of this caspase.

SH-EP cells = assay: Cleavage of exogenous hCaspase-12 in transfected SH-EP cells after αFas-antibody induction of the extrinsic cell death pathway (Western blot); assay type: cell-based; conditions: 250 ng/ml αFas-antibody for 18 hours
Procedure: The role of hCaspase-12 in cell death pathways was examined using cells of a neuroblastoma cell line, SH-EP. In the extrinsic (or receptor-induced) cell death pathway, caspase-8 is the apical caspase that cleaves effector caspases such as caspase-3, which cleaves many cellular substrates. Caspase activation, indicated by cleavage of the proform of the enzyme in cell lysates, was evaluated by Western blot analysis.
The expression vector pIRES-hrGFP-1a harboring the hCaspase-12 or RIK-5 gene was transfected into SH-EP cells using Superfect transfection reagent (Qiagen). At 24 hours post-transfection, 250 ng/ml αFas-antibody (CH-11, Upstate Biotechnology) was added and incubated for 18 hours to induce the extrinsic cell death pathway. Culture medium and cells were harvested and lysed in detergent buffer. Cleavage of exogenous hCaspase-12 was evaluated by Western blot analysis using anti-human caspase-12 antibody (prepared against peptide WSHHLEEIFQKVQHSFE as described in Example 4).

Molecule: tunicamycin
Induction of caspase-12 protein [1]: strong induction
Induction of GRP 78 (GRP 78): induction

Measured fluorescence intensity (RFU), free rhodamine-110 (DEVD-R110): 445 RFU
Cleavage by calpain II (calpain II): cleaves
B1: ΔCARD: variant of human caspase-12 missing the CARD domain, with Ser-205 to Gly mutation (SEQ ID NO: 79) (protein, listed as Homo sapiens)
chain: SALLEIQGAQPSGKLKLCPHAHFHELKTKRADEIYPVMEKERRTCLALNIRNKEFNYLHNRNGSELDLLGMRDLLENLGYSVVIKENLTAQEMETALRQFAAHPEHQSSDSTFLVFMSHGILNGICGTKHWDQEPDVLHDDTIFEIFNNRNCQSLKDKPKVIIMQACRGNGAGIVWFTTDSGKASADTHGRLLQGNICNDAVTKAHVEKDFIAFKSSTPHNVSWRHETNGSVFISQIIYYFREYSWSHHLEEIFQKVQHSFETPNILTQLPTIERLSMTRYFYLFPGN
Processing of procaspase-3 to mature subunits (procaspase-3): lower molecular weight bands indicative of cleaved mature subunits were observed
Cleavage of exogenous protein in cultures undergoing apoptosis (SH-EP cells): cleaved
